Measurements from PMC8988012 (The Journal of Biological Chemistry, 2022).

Assays:
His-Zyxin (wildtype) = molecular target: T1, His-Zyxin (wildtype) (UniProt Q15942 1-572); experiment: pull-down
T1 sequence (looked up): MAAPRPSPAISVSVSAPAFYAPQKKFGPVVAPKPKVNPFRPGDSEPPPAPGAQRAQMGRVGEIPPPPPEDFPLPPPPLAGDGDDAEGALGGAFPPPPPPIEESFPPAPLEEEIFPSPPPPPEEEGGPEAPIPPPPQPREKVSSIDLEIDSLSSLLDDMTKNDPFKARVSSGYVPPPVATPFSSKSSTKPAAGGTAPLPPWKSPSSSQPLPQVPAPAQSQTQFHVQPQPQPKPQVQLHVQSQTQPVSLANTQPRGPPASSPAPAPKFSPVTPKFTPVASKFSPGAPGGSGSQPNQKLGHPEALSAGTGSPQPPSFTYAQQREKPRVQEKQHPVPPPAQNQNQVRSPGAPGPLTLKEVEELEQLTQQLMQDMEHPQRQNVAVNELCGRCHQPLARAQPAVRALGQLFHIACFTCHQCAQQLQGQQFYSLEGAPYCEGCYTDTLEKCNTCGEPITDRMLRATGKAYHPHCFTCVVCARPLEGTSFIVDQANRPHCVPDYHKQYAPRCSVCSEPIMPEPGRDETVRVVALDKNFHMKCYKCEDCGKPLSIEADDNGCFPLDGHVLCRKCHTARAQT

[1] = GFP-Zyxin1–350 microscopy, U2OS, ± mCherry-14-3-3γ; details: glycan changed form; control: Zyxin (1–350), Ser-169
[2] = mCherry-Zyxin microscopy, U2OS, ± GFP-14-3-3γ; details: glycan changed form; control: wild type

B1: GST-14-3-3γ (natural protein, UniProt P61981 1-247, looked up)
chain: MVDREQLVQKARLAEQAERYDDMAAAMKNVTELNEPLSNEERNLLSVAYKNVVGARRSSWRVISSIEQKTSADGNEKKIEMVRAYREKIEKELEAVCQDVLSLLDNYLIKNCSETQYESKVFYLKMKGDYYRYLAEVATGEKRATVVESSEKAYSEAHEISKEHMQPTHPIRLGLALNYSVFYYEIQNAPEQACHLAKTAFDDAIAELDTLNEDSYKDSTLIMQLLRDNLTLWTSDQQDDDGGEGNN
binding result (His-Zyxin (wildtype)): binds

B2: Zyxin: S169C (protein)
parent chain: T1 sequence (looked up)
other: 14-3-3γ-induced nuclear localisation [1]: no change
other: 14-3-3γ-induced nuclear localisation [2]: no change
